Test results reported in patent US20200224203A1.

Key:
[1] = molecular target: huntingtin (htt) protein, full length, from human fibroblasts, P42858
[2] = molecular target: modified htt protein after partial exon 12 skipping (human) (UniProt P42858); test: cell-based or functional assay

Sequence of huntingtin (htt) protein, full length, from human fibroblasts, P42858 (P42858 whole entry): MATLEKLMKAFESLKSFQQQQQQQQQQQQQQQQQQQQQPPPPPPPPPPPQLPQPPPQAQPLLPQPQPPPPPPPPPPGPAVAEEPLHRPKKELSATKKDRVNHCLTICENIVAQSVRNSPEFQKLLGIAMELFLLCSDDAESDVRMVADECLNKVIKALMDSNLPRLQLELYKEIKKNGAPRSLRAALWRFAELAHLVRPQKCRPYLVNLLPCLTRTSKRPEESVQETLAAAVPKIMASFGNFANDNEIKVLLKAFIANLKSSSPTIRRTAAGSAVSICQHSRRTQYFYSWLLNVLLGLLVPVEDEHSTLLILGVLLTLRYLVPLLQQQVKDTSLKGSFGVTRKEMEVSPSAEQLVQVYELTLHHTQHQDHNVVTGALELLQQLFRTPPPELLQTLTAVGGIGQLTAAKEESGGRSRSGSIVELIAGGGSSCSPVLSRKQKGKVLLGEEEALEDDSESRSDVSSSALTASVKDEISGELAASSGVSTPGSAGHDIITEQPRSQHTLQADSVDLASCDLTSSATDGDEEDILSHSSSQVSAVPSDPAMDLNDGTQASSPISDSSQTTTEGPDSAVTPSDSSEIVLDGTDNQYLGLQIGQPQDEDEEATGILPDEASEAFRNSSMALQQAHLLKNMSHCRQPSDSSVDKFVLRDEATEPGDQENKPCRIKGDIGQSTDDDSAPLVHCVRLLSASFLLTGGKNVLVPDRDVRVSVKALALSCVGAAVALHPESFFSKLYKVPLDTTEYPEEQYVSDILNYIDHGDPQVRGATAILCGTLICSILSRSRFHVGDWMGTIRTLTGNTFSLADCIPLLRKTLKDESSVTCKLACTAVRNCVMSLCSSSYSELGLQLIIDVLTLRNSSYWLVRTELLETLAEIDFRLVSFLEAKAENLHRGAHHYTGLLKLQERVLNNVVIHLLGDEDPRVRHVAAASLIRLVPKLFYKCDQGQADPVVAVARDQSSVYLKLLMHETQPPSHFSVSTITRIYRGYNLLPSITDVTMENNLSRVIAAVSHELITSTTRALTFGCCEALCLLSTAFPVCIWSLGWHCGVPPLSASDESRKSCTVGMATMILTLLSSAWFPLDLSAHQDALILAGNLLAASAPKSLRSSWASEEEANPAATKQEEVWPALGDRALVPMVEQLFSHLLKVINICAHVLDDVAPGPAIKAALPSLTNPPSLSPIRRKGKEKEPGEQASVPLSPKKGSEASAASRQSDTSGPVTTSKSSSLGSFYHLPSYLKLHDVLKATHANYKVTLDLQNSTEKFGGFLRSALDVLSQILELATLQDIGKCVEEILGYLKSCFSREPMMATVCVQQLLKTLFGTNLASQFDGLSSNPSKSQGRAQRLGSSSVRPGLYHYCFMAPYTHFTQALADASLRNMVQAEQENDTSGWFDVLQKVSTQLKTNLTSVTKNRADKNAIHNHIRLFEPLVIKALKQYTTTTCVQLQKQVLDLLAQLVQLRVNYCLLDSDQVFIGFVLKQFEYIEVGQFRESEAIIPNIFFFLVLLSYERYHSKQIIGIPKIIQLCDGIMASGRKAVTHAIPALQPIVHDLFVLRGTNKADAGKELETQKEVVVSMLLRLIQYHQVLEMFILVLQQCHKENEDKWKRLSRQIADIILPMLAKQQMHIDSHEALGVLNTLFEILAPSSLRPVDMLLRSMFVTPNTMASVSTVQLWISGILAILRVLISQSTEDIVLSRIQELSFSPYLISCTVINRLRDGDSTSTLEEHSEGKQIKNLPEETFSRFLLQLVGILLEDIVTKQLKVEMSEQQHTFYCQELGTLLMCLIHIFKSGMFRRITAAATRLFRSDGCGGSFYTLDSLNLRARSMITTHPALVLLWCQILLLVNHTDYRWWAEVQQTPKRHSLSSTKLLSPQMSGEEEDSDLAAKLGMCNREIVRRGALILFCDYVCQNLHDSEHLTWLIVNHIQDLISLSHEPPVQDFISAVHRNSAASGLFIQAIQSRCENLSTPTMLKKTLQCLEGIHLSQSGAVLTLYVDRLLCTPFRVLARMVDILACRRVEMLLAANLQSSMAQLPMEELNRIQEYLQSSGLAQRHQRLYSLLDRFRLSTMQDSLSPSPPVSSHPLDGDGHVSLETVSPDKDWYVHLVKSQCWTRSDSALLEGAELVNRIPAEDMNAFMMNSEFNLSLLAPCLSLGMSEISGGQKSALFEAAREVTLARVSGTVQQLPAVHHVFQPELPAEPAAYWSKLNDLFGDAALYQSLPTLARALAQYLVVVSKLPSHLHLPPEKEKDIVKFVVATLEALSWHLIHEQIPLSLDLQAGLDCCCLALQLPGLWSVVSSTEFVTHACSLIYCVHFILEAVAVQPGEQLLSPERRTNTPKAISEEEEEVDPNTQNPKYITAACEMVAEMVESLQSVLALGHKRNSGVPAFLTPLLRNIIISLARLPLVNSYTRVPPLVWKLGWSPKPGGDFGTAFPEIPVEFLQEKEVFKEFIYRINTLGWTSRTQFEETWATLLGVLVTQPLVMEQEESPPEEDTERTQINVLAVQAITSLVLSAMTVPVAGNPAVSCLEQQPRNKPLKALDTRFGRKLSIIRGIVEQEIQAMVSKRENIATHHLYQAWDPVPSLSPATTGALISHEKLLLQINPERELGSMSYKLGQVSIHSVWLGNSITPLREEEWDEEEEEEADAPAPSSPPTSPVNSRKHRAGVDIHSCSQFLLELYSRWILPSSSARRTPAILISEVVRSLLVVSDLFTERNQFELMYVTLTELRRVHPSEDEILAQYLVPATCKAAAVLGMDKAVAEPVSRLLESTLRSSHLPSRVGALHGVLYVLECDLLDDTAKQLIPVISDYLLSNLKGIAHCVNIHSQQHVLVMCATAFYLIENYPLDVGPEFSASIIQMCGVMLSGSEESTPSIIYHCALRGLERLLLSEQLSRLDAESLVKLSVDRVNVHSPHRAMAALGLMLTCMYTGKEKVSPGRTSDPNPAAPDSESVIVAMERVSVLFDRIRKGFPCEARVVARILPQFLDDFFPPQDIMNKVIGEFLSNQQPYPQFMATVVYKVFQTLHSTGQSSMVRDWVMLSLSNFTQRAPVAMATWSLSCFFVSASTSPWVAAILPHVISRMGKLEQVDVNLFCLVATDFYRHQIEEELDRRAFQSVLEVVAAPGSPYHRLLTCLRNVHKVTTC

reduction of 98 kDa N-terminal htt fragments in an in vitro caspase-6 cleavage assay (samples from cells treated with hHTTEx12 7) [2]: 31.9%
B1: recombinant active caspase-6 (protein)
chain: AFYKREMFDPAEKYKMDHRRRGIALIFNHERFFWHLTLPERRGTCADRDNLTRRFSDLGFEVKCFNDLKAEELLLKIHEVSTVSHADADCFVCVFLSHGEGNHIYAYDAKIEIQTLTGLFKGDKCHSLVGKPKIFIIQACRGNQHDVPVIPLDVVDNQTEKLDTNITEVDAASVYTLPAGADFLMCYSVAEGYYSHRETVNGSWYIQDLCEMLGKYGSSLEFTELLTLVNRKVSQRRVDFCKDPSAIGKKQVPCFASMLTKKLHFFPKSN
N-terminal htt fragments detected by Western blot (4C8 antibody) in an in vitro caspase-6 cleavage assay [1]: After samples were incubated with recombinant active caspase-6, N-terminal htt fragments of 98 kDa were detected
